Assay results: article PMC6527180, “A chloride ring is an ancient evolutionary innovation mediating the assembly of the collagen IV scaffold of basement membranes” (The Journal of Biological Chemistry, 2019)
Blank lines part the entries; values can stand above or below the binder they belong to.

B3: bovine α2 NC1 monomer (collagen IV α2-chain NC1 domain from bovine lens basement membrane) (domain or fragment)
chain: ISIGYLLVKHSQTDQEPMCPVGMNKLWSGYSLLYFEGQEKAHNQDLGLAGSCLARFSTMPFLYCNPGDVCYYASRNDKSYWLSTTAPLPMMPVAEEDIRPYISRCSVCEAPAVAIAVHSQDVSIPHCPAGWRSLWIGYSFLMHTAAGDEGGGQSLVSPGSCLEDFRATPFIECNGARGTCHYYANKYSFWLTTIPEQSFQGTPSADTLKAGLIRTHISRCQVCMKNL
notes: collagen IV α2-chain NC1 domain, bovine, monomer from tissue-extracted NC1 hexamer; Used as a mixture with the α1 NC1 monomer; also called tissue-derived α2 NC1 monomer; NC1 monomers; source: purified from bovine lens basement membrane
B4: human collagen IV α1-chain NC1 domain, third domain of the single-chain trimer (residues 1446–1669) (domain or fragment, UniProt P02462 1446-1669, looked up)
chain: FLVTRHSQTIDDPQCPSGTKILYHGYSLLYVQGNERAHGQDLGTAGSCLRKFSTMPFLFCNINNVCNFASRNDYSYWLSTPEPMPMSMAPITGENIRPFISRCAVCEAPAMVMAVHSQTIQIPPCPSGWSSLWIGYSFVMHTSAGAEGSGQALASPGSCLEEFRSAPFIECHGRGTCNYYANAYSFWLATIERSEMFKKPTPSTLKAGELRTHVSRCQVCMRRT
notes: collagen IV α1-chain NC1 domain, human, residues 1446–1669 (including final C-terminal residues); Not a free protein: joined by an APG linker to m5 on the single chain m1; also called α1 NC1 domain

Legend:
[1] = biological target: B4; experiment: crystal structure; X-ray, 1.9 Å, space group P4_(1)2_(1)2; protein 11 mg/ml in 5 mM Tris-HCl pH 7.5, 150 mM NaCl; hexamer by crystallographic 2-fold; conditions: both partners purified
[2] = biological target: T1, human collagen IV α1-chain NC1 domain, first domain of the single-chain trimer (residues 1438–1666) (human, UniProt P02462 1438-1666); experiment: as above; conditions: both partners purified
T1 construct: collagen IV α1-chain NC1 domain, human, residues 1438–1666; Not a free protein: joined by a GTG linker to m5 on the single chain m1; written apart for the domain-domain contacts in the crystal structure; also called α1 NC1 domain; not shown: FLAG, N-terminal, kept
T1 sequence (looked up): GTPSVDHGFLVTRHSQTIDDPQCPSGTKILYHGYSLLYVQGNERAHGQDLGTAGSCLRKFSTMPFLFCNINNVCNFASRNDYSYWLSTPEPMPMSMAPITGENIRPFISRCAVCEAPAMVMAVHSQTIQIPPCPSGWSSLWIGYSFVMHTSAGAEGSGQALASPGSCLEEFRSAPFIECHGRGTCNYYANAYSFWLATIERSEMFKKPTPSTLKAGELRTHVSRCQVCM

[3] = biological target: the molecule itself; experiment: SEC; in vitro hexamer assembly: 1 mg/ml in 25 mM Tris acetate pH 7.5, induced with 150 mM NaCl, 24 h at 37 °C unless varied (NaCl, protein, temperature, time); hexamer peak quantified by SEC; second-order fit T+T→H
[4] = biological target: the molecule itself; experiment: crystal structure; X-ray, 1.9 Å, space group P4_(1)2_(1)2; protein 11 mg/ml in 5 mM Tris-HCl pH 7.5, 150 mM NaCl; hexamer by crystallographic 2-fold
[5] = biological target: the molecule itself; experiment: AUC; sedimentation equilibrium, 0.3 mg/ml in Cl−-free TNA (25 mM Tris acetate pH 7.5, 150 mM sodium acetate), 4 °C, 10,000 rpm, 48 h; trimer–to–hexamer self-association model (two single chains to one hexamer), trimer mass fixed to 74 kDa
[6] = biological target: B3; experiment: co-IP; bovine α1 and α2 NC1 monomers incubated with sc121 NC1-trimer in the presence of Cl−; formed hexamers immunoprecipitated by the FLAG tag of the recombinant trimer and their composition analysed (Fig. S3); conditions: both partners purified
[7] = biological target: T2, bovine α1 NC1 monomer (collagen IV α1-chain NC1 domain from bovine lens basement membrane) (bovine, UniProt Q7SIB2 1441-1669); experiment: as above; conditions: both partners purified
T2 construct: collagen IV α1-chain NC1 domain, bovine, monomer from tissue-extracted NC1 hexamer; Used as a mixture with the α2 NC1 monomer; also called tissue-derived α1 NC1 monomer; NC1 monomers; source: purified from bovine lens basement membrane
T2 sequence: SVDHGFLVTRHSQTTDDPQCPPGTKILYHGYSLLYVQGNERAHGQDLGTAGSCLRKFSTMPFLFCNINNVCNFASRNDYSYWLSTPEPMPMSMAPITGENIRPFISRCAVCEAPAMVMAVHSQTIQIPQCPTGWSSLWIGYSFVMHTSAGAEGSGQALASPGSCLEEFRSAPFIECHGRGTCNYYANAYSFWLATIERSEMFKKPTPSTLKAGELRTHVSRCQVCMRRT

[8] = biological target: T2, bovine α1 NC1 monomer (collagen IV …); experiment: SEC; in vitro hexamer assembly: 1 mg/ml in 25 mM Tris acetate pH 7.5, induced with 150 mM NaCl, 24 h at 37 °C unless varied (NaCl, protein, temperature, time); hexamer peak quantified by SEC; second-order fit T+T→H; conditions: both partners purified

binding result [1]: binds
binding result [2]: binds
B1: human collagen IV α2-chain NC1 domain, second domain of the single-chain trimer (residues 1490–1709) (domain or fragment, UniProt P08572 1490-1709, looked up)
chain: YLLVKHSQTDQEPMCPVGMNKLWSGYSLLYFEGQEKAHNQDLGLAGSCLARFSTMPFLYCNPGDVCYYASRNDKSYWLSTTAPLPMMPVAEDEIKPYISRCSVCEAPAIAIAVHSQDVSIPHCPAGWRSLWIGYSFLMHTAAGDEGGGQSLVSPGSCLEDFRATPFIECNGGRGTCHYYANKYSFWLTTIPEQSFQGSPSADTLKAGLIRTHISRCQVCM
notes: collagen IV α2-chain NC1 domain, human, residues 1490–1709; Not a free protein: joined by GTG (N-terminal side, to m4) and APG (C-terminal side, to m6) linkers on the single chain m1; also called α2 NC1 domain

binding result [6]: binds
binding result [7]: binds
B2: single-chain α121 NC1 trimer (sc121 NC1-trimer) (other, human)
chain: GTPSVDHGFLVTRHSQTIDDPQCPSGTKILYHGYSLLYVQGNERAHGQDLGTAGSCLRKFSTMPFLFCNINNVCNFASRNDYSYWLSTPEPMPMSMAPITGENIRPFISRCAVCEAPAMVMAVHSQTIQIPPCPSGWSSLWIGYSFVMHTSAGAEGSGQALASPGSCLEEFRSAPFIECHGRGTCNYYANAYSFWLATIERSEMFKKPTPSTLKAGELRTHVSRCQVCMGTGYLLVKHSQTDQEPMCPVGMNKLWSGYSLLYFEGQEKAHNQDLGLAGSCLARFSTMPFLYCNPGDVCYYASRNDKSYWLSTTAPLPMMPVAEDEIKPYISRCSVCEAPAIAIAVHSQDVSIPHCPAGWRSLWIGYSFLMHTAAGDEGGGQSLVSPGSCLEDFRATPFIECNGGRGTCHYYANKYSFWLTTIPEQSFQGSPSADTLKAGLIRTHISRCQVCMAPGFLVTRHSQTIDDPQCPSGTKILYHGYSLLYVQGNERAHGQDLGTAGSCLRKFSTMPFLFCNINNVCNFASRNDYSYWLSTPEPMPMSMAPITGENIRPFISRCAVCEAPAMVMAVHSQTIQIPPCPSGWSSLWIGYSFVMHTSAGAEGSGQALASPGSCLEEFRSAPFIECHGRGTCNYYANAYSFWLATIERSEMFKKPTPSTLKAGELRTHVSRCQVCMRRT
notes: collagen IV α1-chain NC1 domain, human, residues 1438–1666; artificial Gly–Thr–Gly linker between α1 and α2; collagen IV α2-chain NC1 domain, human, residues 1490–1709; artificial Ala–Pro–Gly linker between α2 and α1; collagen IV α1-chain NC1 domain, human, residues 1446–1669 (including final C-terminal residues); Vector-derived residues between the FLAG tag and the first α1 residue may be …
kon [3]: 3.45 ± 0.12 M⁻¹ s⁻¹
stoichiometry N [4]: 2
Kd [5]: 37 µM

Further lines, the binder ahead of its results:

Binder: B3
binding result [8]: binds

Binder: B4
binding result [2]: binds
